Reference: patent US20030185828

Target: recombinant aggrecan G1G2 (globular domain 1-globular domain 2 of human aggrecan with N-terminal FLAG tag and C-terminal His tag), P16112
Sequence (P16112 20-675): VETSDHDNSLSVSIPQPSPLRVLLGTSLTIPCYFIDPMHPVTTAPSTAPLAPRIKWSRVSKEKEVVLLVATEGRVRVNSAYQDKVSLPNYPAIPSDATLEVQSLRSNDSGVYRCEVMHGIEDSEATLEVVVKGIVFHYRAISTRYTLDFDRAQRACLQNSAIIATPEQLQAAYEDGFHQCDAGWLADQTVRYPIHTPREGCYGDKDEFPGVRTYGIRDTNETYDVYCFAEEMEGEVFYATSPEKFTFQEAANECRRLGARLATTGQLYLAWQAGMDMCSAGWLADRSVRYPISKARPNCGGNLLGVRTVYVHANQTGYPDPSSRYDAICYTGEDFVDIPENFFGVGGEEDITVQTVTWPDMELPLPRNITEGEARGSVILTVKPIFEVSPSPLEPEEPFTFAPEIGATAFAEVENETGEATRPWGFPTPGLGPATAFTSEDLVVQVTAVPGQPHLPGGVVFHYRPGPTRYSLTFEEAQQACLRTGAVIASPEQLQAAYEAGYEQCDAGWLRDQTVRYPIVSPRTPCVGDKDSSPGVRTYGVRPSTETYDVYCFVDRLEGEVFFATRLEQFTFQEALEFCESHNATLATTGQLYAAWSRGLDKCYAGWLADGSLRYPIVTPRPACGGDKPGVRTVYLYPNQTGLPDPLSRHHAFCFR

B1: MDTS8 full-length protein (MDTS8Full) with FLAG tag added to the C-terminus, expressed from plasmid pCEPdE2-MDTS8Full-FLAG (protein)
chain: MECALLLACAFPAAGSGPPRGLAGLGRVAKALQLCCLCCASVAAALASDSSSGASGLNDDYVFVTPVEVDSAGSYISHDILHNGRKKRSAQNARSSLHYRFSAFGQELHLELKPSAILSSHFIVQVLGKDGASETQKPEVQQCFYQGFIRNDSSSSVAVSTCAGLSGLIRTRKNEFLISPLPQLLAQEHNYSSPAGHHPHVLYKRTAEEKIQRYRGYPGSGRNYPGYSPSHIPHASQSRETEYHHRRLQKQHFCGRRKKYAPKPPTEDTYLRFDEYGSSGRPRRSAGKSQKGLNVETLVVADKKMVEKHGKGNVTTYILTVMNMVSGLFKDGTIGSDINVVVVSLILLEQEPGGLLINHHADQSLNSFCQWQSALIGKNGKRHDHAILLTGFDICSWKNEPCDTLGFAPISGMCSKYRSCTINEDTGLGLAFTIAHESGHNFGMIHDGEGNPCRKAEGNIMSPTLTGNNGVFSWSSCSRQYLKKFLSTPQAGCLVDEPKQAGQYKYPDKLPGQIYDADTQCKWQFGAKAKLCSLGFVKDICKSLWCHRVGHRCETKFMPAAEGTVCGLSMWCRQGQCVKFGELGPRPIHGQWSAWSKWSECSRTCGGGVKFQERHCNNPKPQYGGLFCPGSSRIYQLCNINPCNENSLDFRAQQCAEYNSKPFRGWFYQWKPYTKVEEEDRCKLYCKAENFEFFFAMSGKVKDGTPCSPNKNDVCIDGVCELVGCDHELGSKAVSDACGVCKGDNSTCKFYKGLYLNQHKANEYYPVVIIPAGARSIEIQELQVSSSYLAVRSLSQKYYLTGGWSIDWPGEFPFAGTTFEYQRSFNRPERLYAPGPTNETLVFEILMQGKNPGIAWKYALPKVMNGTPPATKRPAYTWSIVQSECSVSCGGGYINVKAICLRDQNTQVNSSFCSAKTKPVTEPKICNAFSCPAYWMPGEWSTCSKACAGGQQSRKIQCVQKKPFQKEEAVLHSLCPVSTPTQVQACNSHACPPQWSLGPWSQCSKTCGRGVRKRELLCKGSAAETLPESQCTSLPRPELQEGCVLGRCPKNSRLQWVASSWSECSATCGLGVRKREMKCSEKGFQGKLITFPERRCRNIKKPNLDLEETCNRRACPAHPVYNMVAGWYSLPWQQCTVTCGGGVQTRSVHCVQQGRPSSSCLLHQKPPVLRACNTNFCPAPEKREDPSCVDFFNWCHLVPQHGVCNHKFYGKQCCKSCTRKIAAADYKDDDDK
degradation product reactive with the anti-aggrecanase neoepitope antibody (western blotting after overnight reaction at 37 C): such degradation products were detected when the culture supernatant of the HEK293-EBNA cell transfected with the plasmid pCEPdE2-MDTS8Full-FLAG was reacted with the recombinant G1G2
